Experiments:
[1] = system: human pkal and prekal; assay: ELISA for binding to human pkal and prekal; details: monoclonal IgG from hybridoma
Description: Five prekallikrein (prekal) knock-out mice were immunized via the hock route with active human plasma kallikrein (pkal, Enzyme Research Labs, South Bend, IN). When serum titers indicated a robust immune response, draining lymph nodes were harvested, and lymphocytes were fused with a myeloma line using electrofusion. Resulting hybridomas were plated in thirty 384-well plates, and screening by ELISA for binding to human pkal and prekal. Hybridoma lines with preferential binding to pkal were subcloned and expanded.
(§1) Monoclonal IgGs were retested for pkal and prekal binding by ELISA, and were screened for inhibition of pkal (1 nM enzyme) enzymatic activity in a fluorogenic peptide substrate assay (Kenniston et al. J Biol Chem. 2014 Aug. 22; 289(34):23596-608). […] This hybridoma was sequenced to determine heavy and light chain variable domains (SEQ ID NO: 1 and SEQ ID NO: 2; MAb1). […] The nucleic acid sequence of the heavy chain variable domain of MAb1 is provided as SEQ ID NO: 33 and the nucleic acid sequence of the light chain variable domain of MAb1 is provided as SEQ ID NO: 34.

[2] = biological target: T1, pkal (1 nM enzyme) (Homo sapiens, UniProt P03952); assay: Inhibition of pkal enzymatic activity in a fluorogenic peptide substrate assay (screening); format: biochemical
T1 construct: active human plasma kallikrein (pkal, Enzyme Research Labs, South Bend, IN); purchased Enzyme Research Labs, South Bend, IN
Description: as §1

[3] = system: trypsin, human pancrease; assay: Trypsin inhibition assay; format: biochemical; details: dilution series starting at 1 μM
Description: Fluorescence intensity was measured every 5 minutes. Gabexate mesylate was used as a positive control, in a dilution series starting at 1 μM. The assay was performed in duplicate.

[4] = biological target: T2, human FcRn (Homo sapiens, UniProt P55899); assay: hFcRn binding by SPR (Biacore T200)
T2 construct: purchased Sino Biological CT009-H08H
Description: IgG1 was used as a control antibody. The antibody samples were assessed for FcRn binding via SPR using a Biacore T200. The Biacore chip was a CMS coupled with human FcRn (Sino Biological, Cat. No. CT009-H08H). Running buffer used was PBS 0.05% P20 and pH 6 or pH 7.4.

[5] = Cynomolgus pharmacokinetic studies; format: in vivo, cynomolgus monkey; details: male cynomolgus, IV infusion 5 mg/kg
Description: These studies of these antibodies were conducted concurrently, but were independent studies rather than a head-to-head comparison. Cynomolgus monkeys, LM-naïve or naive, 3.0-4.0 kg, male, N=18, were purchased from Hainan Jingang Biotech Co. LTD. The antibodies were prepared in 20 mM Histidine, 150 mM NaCl, 0.01% Tween 80, pH 6.5. In these studies, all antibodies were administered to male cynomolgus monkeys (N=3) via IV infusion over 10 min at 5 mg/kg. Blood was collected from cephalic and saphenous veins into pre-cooled citrate acid tubes at each time point. […] Blood samples were put on wet ice and centrifuged at 4° C. to obtain plasma within 15 minutes of sample collection. Plasma samples were stored at approximately −70 C. Presence of each anti-plasma kallikrein antibody in the plasma samples was determined via ELISA using a plate coated with anti-human antibody as the capture agent and human IgG-heavy and light chain monkey-adsorbed antibody as the detection reagent (Southern Biotech, Cat #: 2049-01 and Bethyl, Cat #A80-319P). ELISA plates were read using a SpectraMax M2.

[6] = biological target: T3, human plasma kallikrein (Homo sapiens, UniProt P03952); assay: SPR binding to human plasma kallikrein; details: pH 7.4, 37° C.
T3 construct: active human plasma kallikrein (pkal, Enzyme Research Labs, South Bend, IN); purchased Enzyme Research Labs
Description: Kinetic properties and selectivity of lead pkal antibodies were examined by SPR at 37° C. and either pH 7.4 or pH 6.0.

[7] = biological target: T4, plasma kallikrein (pkal) (Homo sapiens, UniProt P03952); assay: HMWK cleavage functional assay (bradykinin release measured by ELISA); format: biochemical; details: inhibition of HMWK cleavage by pkal
T4 construct: active human plasma kallikrein (pkal, Enzyme Research Labs, South Bend, IN); purchased Enzyme Research Labs
Description: Specifically, the ability of each antibody to inhibit pkal cleavage of its natural substrate, High Molecular Weight Kininogen (HMWK) was observed. In these experiments 10 or 30 nM pkal was preincubated with inhibitory antibodies for 1 hr at RT, then 600 nM HMWK was added and incubated for 20 minutes and the reaction was quenched by adding 0.5 μM AEBSF. The concentration of bradykinin (BK) released from HMWK as catalyzed by pKal was measured using 1/100 dilution of the reaction product in a commercial ELISA kit (Enzo, Farmingdale, NY).
The HMWK assay parameters were physiologically relevant as the concentration of high molecular weight kininogen used is the concentration that circulates in humans and the concentration of plasma kallikrein used is in the range of what has been estimated in plasma from patients with hereditary angioedema (HAE) during an attack.
The IC90 values for the antibodies were also determined to provide an index of relative potency. In HAE, the therapeutically relevant level of inhibition to prevent HAE attacks is thought to be approximately 90% inhibition of plasma kallikrein. This corresponds to a measurement referred to as IC90, which is the concentration of an agent that results in 90% inhibitory effect.

T1 sequence (P03952 391-638 limits assumed): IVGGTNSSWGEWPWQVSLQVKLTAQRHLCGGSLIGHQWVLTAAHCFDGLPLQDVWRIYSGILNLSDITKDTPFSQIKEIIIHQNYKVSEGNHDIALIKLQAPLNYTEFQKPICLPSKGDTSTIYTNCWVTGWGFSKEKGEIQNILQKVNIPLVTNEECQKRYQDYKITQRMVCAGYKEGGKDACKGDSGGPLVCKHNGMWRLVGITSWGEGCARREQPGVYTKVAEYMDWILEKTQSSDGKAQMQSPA
T1 sequence (P03952 20-390 limits assumed): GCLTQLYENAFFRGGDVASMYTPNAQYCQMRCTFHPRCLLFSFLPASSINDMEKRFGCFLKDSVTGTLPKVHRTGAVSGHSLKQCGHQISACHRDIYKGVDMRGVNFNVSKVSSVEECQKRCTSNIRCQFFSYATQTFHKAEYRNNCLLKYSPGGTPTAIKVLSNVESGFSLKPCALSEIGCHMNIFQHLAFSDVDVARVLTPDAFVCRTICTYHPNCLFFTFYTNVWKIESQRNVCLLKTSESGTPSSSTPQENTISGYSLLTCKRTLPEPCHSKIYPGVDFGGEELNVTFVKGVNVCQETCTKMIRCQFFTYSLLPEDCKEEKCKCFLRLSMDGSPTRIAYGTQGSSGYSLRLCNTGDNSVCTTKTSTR
T2 sequence (P55899 24-297 limits assumed): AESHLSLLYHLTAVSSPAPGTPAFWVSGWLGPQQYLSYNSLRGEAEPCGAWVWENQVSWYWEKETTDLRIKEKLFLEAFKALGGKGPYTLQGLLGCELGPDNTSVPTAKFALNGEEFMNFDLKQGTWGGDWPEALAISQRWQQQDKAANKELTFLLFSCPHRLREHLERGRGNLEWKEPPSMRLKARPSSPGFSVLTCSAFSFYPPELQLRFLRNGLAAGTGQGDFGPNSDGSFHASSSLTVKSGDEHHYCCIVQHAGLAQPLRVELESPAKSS
T2 sequence (P61769 21-119 partner): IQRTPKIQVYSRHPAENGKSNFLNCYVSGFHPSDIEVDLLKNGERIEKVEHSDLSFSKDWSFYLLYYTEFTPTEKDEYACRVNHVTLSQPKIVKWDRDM
T3 sequence (P03952 20-390 limits assumed): as the sequence (P03952 20-390 limits assumed) above
T3 sequence (P03952 391-638 limits assumed): as the sequence (P03952 391-638 limits assumed) above
T4 sequence (P03952 20-390 limits assumed): as the sequence (P03952 20-390 limits assumed) above
T4 sequence (P03952 391-638 limits assumed): as the sequence (P03952 391-638 limits assumed) above

B1: MAb1: murine hybridoma lineage 24L13 anti-plasma kallikrein antibody; VH SEQ ID NO: 1, VL SEQ ID NO: 2 (antibody, V domains shown)
VH: QVQLQQSGAELVKPGASVKISCKASGYAFSSYWMNWVKQRPGEGLEWIGQIYPGDDDTNYNGKFKGKATLTVDKSSTTAYMQLSSLTSEDSAVYFCAGSLMVTTGAPFDYWGQGTTLTVSS
VL: DIVMTQSHKFMSTSVGDRVSITCKASQDVGIAVAWYQQKPGQSPKFLIYWASTRHTGVPDRFTGSGSGTDFTLTIRNVQSEDLSDYFCQQYRSYPLTFGSGTKLELK
- selectivity for pkal over prekal by ELISA [1]: selective for pkal
- inhibition of pkal enzymatic activity (in words) [2]: inhibitory

B2: MAb2: optimally humanized variant VH5_VL4; VH SEQ ID NO: 3, VL SEQ ID NO: 4 (antibody, V domains shown)
VH: QVQLVQSGAEVKKPGSSVKVSCKASGYAFSSYWMNWVRQAPGQGLEWIGQIYPGDDDTNYNGKFQGRVTITVDKSTTTAYMELSSLRSEDTAVYFCAGSLMVTTGAPFDYWGQGTTVTVSS
VL: DIQMTQSPSSLSASVGDRVTITCKASQDVGIAVAWYQQKPGKAPKFLIYWASTRHTGVPDRFSGSGSGTDFTLTISSLQPEDFATYFCQQYRSYPLTFGQGTKLEIK
- inhibition of pkal enzymatic activity (in words) [2]: maintained both binding affinity and inhibitory potency

B3: MAb3: humanized, liability fixed VH SEQ ID NO: 5 with CDR2-optimized VL SEQ ID NO: 6 (antibody, V domains shown)
VH: QVQLVQSGAEVKKPGSSVKVSCKASGYAFSSYWMNWVRQAPGQGLEWIGQIYPGDDDTNYNAKFQGRVTITVDKSTTTAYMELSSLRSEDTAVYFCAGSLMVTTGAPFDYWGQGTTVTVSS
VL: DIQMTQSPSSLSASVGDRVTITCKASQDVGIAVAWYQQKPGKAPKFLIYYASHRGWGVPDRFSGSGSGTDFTLTISSLQPEDFATYFCQQYRSYPLTFGQGTKLEIK
- inhibition of pkal enzymatic activity (in words) [2]: maintained selectivity and activity

B4: MAb4-YTE: MAb4 with M252Y, S254T, T256E; heavy chain SEQ ID NO: 10, light chain SEQ ID NO: 8 (antibody)
heavy: QVQLVQSGAEVKKPGSSVKVSCKASGYAFSSYWMNWVRQAPGQGLEWIGQIYPGDDDTNYNAKFQGRVTITVDKSTTTAYMELSSLRSEDTAVYFCAGSLMVTTGAPFDYWGQGTTVTVSSASTKGPSVFPLAPSSKSTSGGTAALGCLVKDYFPEPVTVSWNSGALTSGVHTFPAVLQSSGLYSLSSVVTVPSSSLGTQTYICNVNHKPSNTKVDKRVEPKSCDKTHTCPPCPAPELLGGPSVFLFPPKPKDTLYITREPEVTCVVVDVSHEDPEVKFNWYVDGVEVHNAKTKPREEQYNSTYRVVSVLTVLHQDWLNGKEYKCKVSNKALPAPIEKTISKAKGQPREPQVYTLPPSREEMTKNQVSLTCLVKGFYPSDIAVEWESNGQPENNYKTTPPVLDSDGSFFLYSKLTVDKSRWQQGNVFSCSVMHEALHNHYTQKSLSLSPG
light: DIQMTQSPSSLSASVGDRVTITCKASQDVGIAVAWYQQKPGKAPKFLIYYASHRGWGVPDRFSGSGSGTDFTLTISSLQPEDFATYFCQQYRSYPLTFGQGTKLEIKRTVAAPSVFIFPPSDEQLKSGTASVVCLLNNFYPREAKVQWKVDNALQSGNSQESVTEQDSKDSTYSLSSTLTLSKADYEKHKVYACEVTHQGLSSPVTKSFNRGEC
- inhibition of trypsin activity [3]: did not inhibit trypsin activity
- hFcRn Binding Ka ([4]; pH 6.0): 184000 M⁻¹ s⁻¹
- hFcRn Binding Kd ([4]; pH 6.0): 0.0277 s⁻¹
- hFcRn binding at pH 7.4 ([4]; pH 7.4, data not shown): no evidence of binding
- CI (mL/day/kg) (Mean ± SD) [5]: 1.44 ± 0.33 mL/day/kg
- T ½ (days) (Mean ± SD) [5]: 33.6 ± 8.3 days
- Vss (mL/kg) (Mean ± SD) [5]: 66.8 ± 6.1 mL/kg
- terminal half-life [5]: approximately 34 days
- Ka [6]: 69000 M⁻¹ s⁻¹
- Kd [6]: 7.3e-05 s⁻¹
- Hill slope [7]: ~2

Reference: patent publication US20240218079A1, “PLASMA KALLIKREIN ANTIBODIES AND USES THEREOF” (Astria Therapeutics, Inc., priority 2021, published 2024)
